Data as given in patent publication US20240272176A1, “SINGLE DOMAIN ANTIBODY SPECIFIC FOR PHOSPHORYLATED H2AX AND ITS USES” (UNIVERSITE DE STRASBOURG, priority 2021, published 2024).

B1: C6-mCherry chromobody (expressed in transfected H1299 cells) (other, not shown: small tags and cut ends)
VHH: MADVQLVESGGGLVQAGDSLRLSCAASGLTFSRYAMGWFRQAPGNEREFVAVITASGRTTLYADSVKGRFTISRDNAKNTVALQMQSLKPEDTAVYYCAADYGTSRYTRRQSEYEYWGQGTQVTVSSAAA
notes: Expressed under the β-actin promoter from pβA-C6-E6T-mCherry; junctions not spelled out; also called C6 chromobody; C6 nanobody-mCherry
B2: C6-mCherry: C6 coding region fused in frame to mCherry, expressed by transfection (protein)
VHH: B1 VHH
modifications: left off: small tags and cut ends
notes: C6 coding region fused in frame to mCherry, expressed by transfection

How the values were obtained:
[1] = molecular target: T1, γ-H2AX (histone H2AX phosphorylated at serine 139) in drug-treated H1299 or U2OS cells or their extracts (human, UniProt P16104 1-143, phosphorylation of serine at position 139 (S139)); experiment: mCherry fluorescence in transfected H1299 cells after CSK wash
T1 construct: Endogenous nuclear protein of H1299 and U2OS cells (fixed, living, or nuclear/histone extracts), not on the cell surface; also called gammaH2AX; γ-H2AX foci
Experimental: Thus, despite their solubility in mammalian cells, these reagents cannot be transfected into cells to detect with precision γ-H2AX after drug treatment likely due to too high chromobody expression levels.
For the analysis by classical immunofluorescence microscopy, the transfected or transduced cells were fixed with 4% paraformaldehyde for 20 minutes and, after permeabilization with 0.2% Triton X100 for 5 min, they were incubated with mAb 3F4 or VHH preparations diluted in PBS containing either 10% fetal calf serum or 2% BSA. Where indicated, the cells were treated with CSK-100 modified buffer (100 mM NaCl, 300 mM sucrose, 3 mM MgCl₂, 10 mM HEPES pH 6.8, 1 mM EGTA, and 0.2% Triton X-100) for 5 minutes prior to fixation. […] Where indicated, Alexa 568 labelled-C6B molecules were used. The labelling of the purified bivalent C6 equipped with a cysteine residue at the C-terminus was performed essentially as previously described (Shaner, N.C. et al.; Nat. Biotechnol. 2004, 22, 1567-1572). Briefly, purified protein in 0.1 M KH₂PO₄ pH 6.5, 150 mM NaCl, 1 mM EDTA, 250 mM sucrose was mixed with a 1.2 molar amount of Alexa Fluor 568 maleimide derivative (ThermoFisher Scientific). […] The amount of fluorophore per bivalent C6 in the flow-through was calculated by spectrophotometry with a Nanodrop 2000 device (ThermoFisher Scientific). […] The signal was recorded with a Leica DFC350FX camera. […]

[2] = molecular target: T2, γ-H2AX in H1299 cells (Homo sapiens, UniProt P16104); experiment: Chromobody expression by transient transfection in H1299 cells with CSK buffer wash prior to fixation; assay type: cell-based; details: transfected H1299 cells
T2 construct: endogenous in cells; host or cells: H1299
Text: The pβA-scFv-eGFP, a derivative of pDRIVE-hβ-actin (Rinaldi, A.-S. et al.; Exp. Cell Res. 2013, 319, 838-849, doi:10.1016/j.yexcr.2013.01.011) was modified by PCR to insert in frame to the scFv the E6 tag and the mCherry protein using E6T-HindIII-For/E6T-HindIII-Rev and mCherry-For/mCherry-Rev primer pairs, respectively. This vector which carries unique NcoI and SpeI restriction sites was used to sub-clone the VHH variants as described above, thereby generating pβA-C6-E6T-mCherry, pβA-C6M-E6T-mCherry, pβA-C6B-E6T-mCherry and pβA-C6BM-E6T-mCherry.
The day before transfection, 8×10^4 cells were plated in 12-well culture plates containing glass coverslips. […]
For the analysis by classical immunofluorescence microscopy, the transfected or transduced cells were fixed with 4% paraformaldehyde for 20 minutes and, after permeabilization with 0.2% Triton X100 for 5 min, they were incubated with mAb 3F4 or VHH preparations diluted in PBS containing either 10% fetal calf serum or 2% BSA. […] The amount of fluorophore per bivalent C6 in the flow-through was calculated by spectrophotometry with a Nanodrop 2000 device (ThermoFisher Scientific). […] The signal was recorded with a Leica DFC350FX camera. […] For the measurement of the nuclear fluorescence intensity, the images of microscopy fields were acquired with the 20× objective. […]

| Molecule | binding result [1] | nuclear chromobody signal after CSK treatment [2] | nuclear chromobody signal after CSK treatment ([2]; listed as C6 chromobody) |
| --- | --- | --- | --- |
| B1 | no binding |  |  |
| B2 |  | entirely washed off | lost in both drug-treated and untreated cells |
